From paper doi:10.1101/2022.11.10.516004 (bioRxiv, 2022)

Biological target: the molecule itself
Assay: NMR titration

B1: TDP-43 C-terminal domain (CTD), wild type (domain or fragment, human, UniProt Q13148 267-414, looked up)
chain: NRQLERSGRFGGNPGGFGNQGGFGNSRGGGAGLGNNQGSNMGGGMNFGAFSINPAMMAAAQAALQSSWGMMGMLASQQNQSGPSGNNQNQGNMQREPNQAFGSGNNSYSGSNSGAAIGWGSASNAGSGSGFNGGFGSSMDSKSSGWGM
binding result: binds
